From US20050244902A1
Each block holds one binder with its values, some of them ahead of it.

Target: antiserum 98192
Assay: RIA, displacement of 125I-proBNP 1-10Tyr tracer from antiserum 98192

ratio of median inhibitory dose (ID50): 0.001
B1: N-terminal truncated fragment of human proBNP 1-21 with the N-terminal histidine removed (peptide)
peptide: PLGSPGSASDLETSGLQEQR

ratio of median inhibitory dose (ID50): 0.0006
B2: N-terminal truncated fragment of human proBNP 1-21 with the two N-terminal amino acids, histidine and proline, removed (peptide)
peptide: LGSPGSASDLETSGLQEQR
